From PMC10681739, “High-throughput data and modeling reveal insights into the mechanisms of cooperative DNA-binding by transcription factor proteins”

T1: ETS1 (Homo sapiens, UniProt P14921)
T1 sequence: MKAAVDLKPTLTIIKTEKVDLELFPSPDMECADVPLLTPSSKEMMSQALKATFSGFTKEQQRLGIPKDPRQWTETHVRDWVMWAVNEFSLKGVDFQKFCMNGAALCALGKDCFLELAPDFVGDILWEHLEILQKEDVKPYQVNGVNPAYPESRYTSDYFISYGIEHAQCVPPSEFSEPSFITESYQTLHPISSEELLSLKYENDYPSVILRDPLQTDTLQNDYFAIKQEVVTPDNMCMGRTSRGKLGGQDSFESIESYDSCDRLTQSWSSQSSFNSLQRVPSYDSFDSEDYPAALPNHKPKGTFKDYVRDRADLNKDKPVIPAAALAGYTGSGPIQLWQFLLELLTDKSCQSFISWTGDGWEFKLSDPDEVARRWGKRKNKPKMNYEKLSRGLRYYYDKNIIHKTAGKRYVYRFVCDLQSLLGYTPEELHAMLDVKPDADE


Target: T1, ETS1
Experiment: gcPBM; 1 nM ETS1
Details: tags: N-terminal GST (pDEST15), kept (PMC6008103); label: surface-attached array probe

Binder | binding signal
Table S2 B row 126 (dsDNA) DNA 1: TGGCGCTTCCTGTCGCTACCCCAGCGGCCCAGGGCC DNA 2: GGCCCTGGGCCGCTGGGGTAGCGACAGGAAGCGCCA | 18100 PBM fluorescence, median of replicate spots
Table S2 C row 73 (dsDNA) DNA 1: GTGGCACCCTCAAGGGCCACAACGGCTGGGTAACCC DNA 2: GGGTTACCCAGCCGTTGTGGCCCTTGAGGGTGCCAC | 312 PBM fluorescence, median of replicate spots
Table S2 C row 139 (dsDNA) DNA 1: GGAGCTGCTCCAGGCTGCGGTGGGATCAAAGCTACC DNA 2: GGTAGCTTTGATCCCACCGCAGCCTGGAGCAGCTCC | 316 PBM fluorescence, median of replicate spots
Table S2 C row 8 (dsDNA) DNA 1: CCACCCGGGGCCTGGACCGCACCACGGTCACTGGCG DNA 2: CGCCAGTGACCGTGGTGCGGTCCAGGCCCCGGGTGG | 316 PBM fluorescence, median of replicate spots
Table S2 C row 53 (dsDNA) DNA 1: CCTGGGCTGCAGGCACCCACAGTCCAGAGGCTCAAA DNA 2: TTTGAGCCTCTGGACTGTGGGTGCCTGCAGCCCAGG | 318 PBM fluorescence, median of replicate spots
Table S2 C row 106 (dsDNA) DNA 1: ATTCACTCATCCCTCACCACAGCCAGCTGCTTGAGA DNA 2: TCTCAAGCAGCTGGCTGTGGTGAGGGATGAGTGAAT | 320 PBM fluorescence, median of replicate spots
Table S2 C row 160 (dsDNA) DNA 1: GCCAGCCTGGGCCGGGCCACAAGAACAAGGAATGTT DNA 2: AACATTCCTTGTTCTTGTGGCCCGGCCCAGGCTGGC | 322 PBM fluorescence, median of replicate spots
Table S2 C row 35 (dsDNA) DNA 1: GTAGCTGTAACTGCCACCGCGATGCCGAAGGCGCCC DNA 2: GGGCGCCTTCGGCATCGCGGTGGCAGTTACAGCTAC | 324 PBM fluorescence, median of replicate spots
Table S2 C row 195 (dsDNA) DNA 1: GCTGCTGACTGCCCCTGAGGTTAGAGATTGACTAGA DNA 2: TCTAGTCAATCTCTAACCTCAGGGGCAGTCAGCAGC | 325 PBM fluorescence, median of replicate spots
Table S2 C row 126 (dsDNA) DNA 1: TCCACGCCCCGGCGCTGCGGGCACCGAGTAAAACGC DNA 2: GCGTTTTACTCGGTGCCCGCAGCGCCGGGGCGTGGA | 327 PBM fluorescence, median of replicate spots
Table S2 C row 61 (dsDNA) DNA 1: TGCTCTCGGCCTGGCTGTGGGCGGGTGGCCATCAGT DNA 2: ACTGATGGCCACCCGCCCACAGCCAGGCCGAGAGCA | 327 PBM fluorescence, median of replicate spots
Table S2 B row 614 (dsDNA) DNA 1: GAGGACTTCCGGGTGGGTGTGATATCTACGGGCCCG DNA 2: CGGGCCCGTAGATATCACACCCACCCGGAAGTCCTC | 17700 PBM fluorescence, median of replicate spots
Table S2 C row 140 (dsDNA) DNA 1: CCACGGCCCGGTGCCTGTGGTCCCCTCCCCGAGGGT DNA 2: ACCCTCGGGGAGGGGACCACAGGCACCGGGCCGTGG | 328 PBM fluorescence, median of replicate spots
Table S2 C row 97 (dsDNA) DNA 1: CGAGGGCGCGCGTCTCGCGGTCCATCCAGCTCAGCA DNA 2: TGCTGAGCTGGATGGACCGCGAGACGCGCGCCCTCG | 331 PBM fluorescence, median of replicate spots
Table S2 C row 135 (dsDNA) DNA 1: GGGTCCCGGGGACCCTGCGGGCTCCGAGTAGTCGTA DNA 2: TACGACTACTCGGAGCCCGCAGGGTCCCCGGGACCC | 332 PBM fluorescence, median of replicate spots
Table S2 C row 194 (dsDNA) DNA 1: TCGGGAACGTGGGGCTGCGGCCGCCCATGGTGCCCC DNA 2: GGGGCACCATGGGCGGCCGCAGCCCCACGTTCCCGA | 335 PBM fluorescence, median of replicate spots
Table S2 C row 169 (dsDNA) DNA 1: TGGGCATGCGCGGCGCGCGGTTGGCACTGGCTGCGA DNA 2: TCGCAGCCAGTGCCAACCGCGCGCCGCGCATGCCCA | 336 PBM fluorescence, median of replicate spots
Table S2 C row 111 (dsDNA) DNA 1: CCAGCTGTACTGAGTTGAGGTTTTTCTGACCCTCAG DNA 2: CTGAGGGTCAGAAAAACCTCAACTCAGTACAGCTGG | 336 PBM fluorescence, median of replicate spots
Table S2 C row 95 (dsDNA) DNA 1: TGTCTCATCAGCCAGGCCACAAACGCGATGTTTACA DNA 2: TGTAAACATCGCGTTTGTGGCCTGGCTGATGAGACA | 338 PBM fluorescence, median of replicate spots
Table S2 C row 45 (dsDNA) DNA 1: GCGGGGTTGGGAGGCTGCGGGAGTTTGCGTCCCCTC DNA 2: GAGGGGACGCAAACTCCCGCAGCCTCCCAACCCCGC | 339 PBM fluorescence, median of replicate spots
Table S2 C row 30 (dsDNA) DNA 1: TGAAATTTTTCTTTTTGTGGTCAGTAATCCCAAAAA DNA 2: TTTTTGGGATTACTGACCACAAAAAGAAAAATTTCA | 339 PBM fluorescence, median of replicate spots

Binder | binding signal
Table S2 C row 29 (dsDNA) DNA 1: TGGCCATGGCCTATGACCGCTATGTGGCCATCTGCT DNA 2: AGCAGATGGCCACATAGCGGTCATAGGCCATGGCCA | 340 PBM fluorescence, median of replicate spots
Table S2 B row 703 (dsDNA) DNA 1: GCCGGGCACTTCCTGTGGAGGCCGAAGCGGGTGCGC DNA 2: GCGCACCCGCTTCGGCCTCCACAGGAAGTGCCCGGC | 17200 PBM fluorescence, median of replicate spots
Table S2 C row 66 (dsDNA) DNA 1: TCCTGAGTGCTGGGAACCGCAGCGCCACATGCACCC DNA 2: GGGTGCATGTGGCGCTGCGGTTCCCAGCACTCAGGA | 341 PBM fluorescence, median of replicate spots
Table S2 C row 19 (dsDNA) DNA 1: GACAAATCAAATGCCACCGCAGAGTTTACTCGAGTT DNA 2: AACTCGAGTAAACTCTGCGGTGGCATTTGATTTGTC | 343 PBM fluorescence, median of replicate spots
Table S2 C row 185 (dsDNA) DNA 1: GCAGAAATATGCTGAACCACAACTGAAGGTGGCTGA DNA 2: TCAGCCACCTTCAGTTGTGGTTCAGCATATTTCTGC | 345 PBM fluorescence, median of replicate spots
Table S2 C row 165 (dsDNA) DNA 1: ATCAGCGTGGCTGCTGCCGCAGAACAAGCCACGCTT DNA 2: AAGCGTGGCTTGTTCTGCGGCAGCAGCCACGCTGAT | 345 PBM fluorescence, median of replicate spots
Table S2 C row 94 (dsDNA) DNA 1: CCCAAGCCCGCGGGCTGCGGGCGCTGATTGGGCGGC DNA 2: GCCGCCCAATCAGCGCCCGCAGCCCGCGGGCTTGGG | 346 PBM fluorescence, median of replicate spots
Table S2 C row 189 (dsDNA) DNA 1: CCCTGGGGTCCCTTTGCCGCAGTTCCACATCTGCAG DNA 2: CTGCAGATGTGGAACTGCGGCAAAGGGACCCCAGGG | 346 PBM fluorescence, median of replicate spots
Table S2 C row 11 (dsDNA) DNA 1: AGGTCCTCTGCATTCTGTGGTCACAAACCCAGAGCC DNA 2: GGCTCTGGGTTTGTGACCACAGAATGCAGAGGACCT | 347 PBM fluorescence, median of replicate spots
Table S2 C row 193 (dsDNA) DNA 1: GCTCCTAGATGGCTCTGTGGGCAGGTGCTGGCCAAG DNA 2: CTTGGCCAGCACCTGCCCACAGAGCCATCTAGGAGC | 347 PBM fluorescence, median of replicate spots
Table S2 C row 132 (dsDNA) DNA 1: GGCCTGATAGCAATGGCCACAAACACAGCAAGCCAC DNA 2: GTGGCTTGCTGTGTTTGTGGCCATTGCTATCAGGCC | 348 PBM fluorescence, median of replicate spots
Table S2 C row 188 (dsDNA) DNA 1: GGAGATAGCCTAGGCTGTGGTTTTTCAGAGAAACCT DNA 2: AGGTTTCTCTGAAAAACCACAGCCTAGGCTATCTCC | 350 PBM fluorescence, median of replicate spots
Table S2 B row 649 (dsDNA) DNA 1: TTATTTCCGGTGTTGATCTTTTTATTGGTACCAGGC DNA 2: GCCTGGTACCAATAAAAAGATCAACACCGGAAATAA | 43000 PBM fluorescence, median of replicate spots
Table S2 B row 1920 (dsDNA) DNA 1: ACATTCTTCCGGTTGGACCTCCGCGATCAGCGCTGT DNA 2: ACAGCGCTGATCGCGGAGGTCCAACCGGAAGAATGT | 16500 PBM fluorescence, median of replicate spots
Table S2 C row 9 (dsDNA) DNA 1: CATGTGAGCGACTGGGCCGCAGCCATCAGCCTCCTG DNA 2: CAGGAGGCTGATGGCTGCGGCCCAGTCGCTCACATG | 350 PBM fluorescence, median of replicate spots
Table S2 C row 17 (dsDNA) DNA 1: GGGGTGTACACTAGCTGCGGTCTGATTTAGCCCTTT DNA 2: AAAGGGCTAAATCAGACCGCAGCTAGTGTACACCCC | 351 PBM fluorescence, median of replicate spots
Table S2 C row 142 (dsDNA) DNA 1: CCTAAGAGTAAGCTAACCACAGGGATTCTTTTGTAG DNA 2: CTACAAAAGAATCCCTGTGGTTAGCTTACTCTTAGG | 351 PBM fluorescence, median of replicate spots
Table S2 C row 164 (dsDNA) DNA 1: GAGCGGAGACAGAACACCGCACACCCAGCGTCCCAA DNA 2: TTGGGACGCTGGGTGTGCGGTGTTCTGTCTCCGCTC | 352 PBM fluorescence, median of replicate spots
Table S2 C row 127 (dsDNA) DNA 1: CCGCCCTCGGTCCCCACCGCGGAGGACTCTCTCAAG DNA 2: CTTGAGAGAGTCCTCCGCGGTGGGGACCGAGGGCGG | 352 PBM fluorescence, median of replicate spots
Table S2 C row 145 (dsDNA) DNA 1: TGTGGCTGCCCTCAGACCACAAACCACCAGCCCTAT DNA 2: ATAGGGCTGGTGGTTTGTGGTCTGAGGGCAGCCACA | 352 PBM fluorescence, median of replicate spots
Table S2 C row 104 (dsDNA) DNA 1: TCTCCCAGCGTCTGATGTGGCTTCGGTGTCAGACAT DNA 2: ATGTCTGACACCGAAGCCACATCAGACGCTGGGAGA | 352 PBM fluorescence, median of replicate spots
